Measurements: patent US20240400654A1
Where “and” joins values, the source holds several entries; their conditions need not be identical. Identical values can stand only once.

Experiments:
[1] = molecular target: HRgpA-6H (Porphyromonas gingivalis) (UniProt P28784); assay: ELISA, FASEBA screening, coated HRgpA-6H 0.0625 ug/ml
[2] = molecular target: HRgpA-6H (Porphyromonas gingivalis) (UniProt P28784); assay: ELISA, FASEBA screening, coated HRgpA-6H; variant OD over parental WT Fab OD

Chain of UniProt P28784 (P28784 228-860): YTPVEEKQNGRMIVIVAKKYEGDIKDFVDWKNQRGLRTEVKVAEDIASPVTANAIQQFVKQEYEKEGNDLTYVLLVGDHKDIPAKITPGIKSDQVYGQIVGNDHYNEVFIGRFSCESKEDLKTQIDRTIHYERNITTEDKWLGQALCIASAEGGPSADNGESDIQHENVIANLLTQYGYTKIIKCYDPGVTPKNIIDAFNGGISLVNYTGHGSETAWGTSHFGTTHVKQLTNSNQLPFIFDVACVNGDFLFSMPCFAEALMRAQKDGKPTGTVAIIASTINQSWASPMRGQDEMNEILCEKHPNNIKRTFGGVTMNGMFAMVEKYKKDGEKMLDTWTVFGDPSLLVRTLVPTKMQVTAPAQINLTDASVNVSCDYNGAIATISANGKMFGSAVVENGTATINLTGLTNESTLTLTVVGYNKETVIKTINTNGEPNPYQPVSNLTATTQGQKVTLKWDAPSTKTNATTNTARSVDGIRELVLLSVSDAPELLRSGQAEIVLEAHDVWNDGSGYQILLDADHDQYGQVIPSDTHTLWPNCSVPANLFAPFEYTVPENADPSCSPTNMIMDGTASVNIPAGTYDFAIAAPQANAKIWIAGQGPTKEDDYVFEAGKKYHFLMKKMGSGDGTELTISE

Row | Binder | OD450 nm [1] | Ratio OD(Variant)/OD(WT) [2]
1 | KB001 parental mouse Fab FASEBA variant VH N100T (Fab, V domains shown) VH: EVQLKQSGPGLVAPSQSLSITCTVSGFSLSIYSVHWVRQPPGKGLEWLGMIWGGGSSDYNSALKSRLSISKDNSKSQVFLKMNSLQTDDTAMYYCARNGTFYAMDYWGQGTSVTVSS VL: QIVLTQSPAIMSASLGERVTMTCTASSSVSSSFLHWYQQKPGSSPQLWIYSTSNLASGVPARFSGSGSGTSYSLTISSMEAEDAATYYCHQYHHSPYIYTFGGGTKLEIK | 0.756 and 0.783 | 0.893 and 0.924
2 | KB001 parental mouse Fab FASEBA variant VH N100K (Fab, V domains shown) VH: EVQLKQSGPGLVAPSQSLSITCTVSGFSLSIYSVHWVRQPPGKGLEWLGMIWGGGSSDYNSALKSRLSISKDNSKSQVFLKMNSLQTDDTAMYYCARNGKFYAMDYWGQGTSVTVSS VL: QIVLTQSPAIMSASLGERVTMTCTASSSVSSSFLHWYQQKPGSSPQLWIYSTSNLASGVPARFSGSGSGTSYSLTISSMEAEDAATYYCHQYHHSPYIYTFGGGTKLEIK | 0.801 and 0.791 | 0.946 and 0.934
3 | KB001 parental mouse Fab FASEBA variant VH N100R (Fab, V domains shown) VH: EVQLKQSGPGLVAPSQSLSITCTVSGFSLSIYSVHWVRQPPGKGLEWLGMIWGGGSSDYNSALKSRLSISKDNSKSQVFLKMNSLQTDDTAMYYCARNGRFYAMDYWGQGTSVTVSS VL: QIVLTQSPAIMSASLGERVTMTCTASSSVSSSFLHWYQQKPGSSPQLWIYSTSNLASGVPARFSGSGSGTSYSLTISSMEAEDAATYYCHQYHHSPYIYTFGGGTKLEIK | 0.788 | 0.93
4 | KB001 parental mouse Fab FASEBA variant VH N100Q (Fab, V domains shown) VH: EVQLKQSGPGLVAPSQSLSITCTVSGFSLSIYSVHWVRQPPGKGLEWLGMIWGGGSSDYNSALKSRLSISKDNSKSQVFLKMNSLQTDDTAMYYCARNGQFYAMDYWGQGTSVTVSS VL: QIVLTQSPAIMSASLGERVTMTCTASSSVSSSFLHWYQQKPGSSPQLWIYSTSNLASGVPARFSGSGSGTSYSLTISSMEAEDAATYYCHQYHHSPYIYTFGGGTKLEIK | 0.846 | 0.999
5 | KB001 parental mouse Fab FASEBA variant VH N100Y (Fab, V domains shown) VH: EVQLKQSGPGLVAPSQSLSITCTVSGFSLSIYSVHWVRQPPGKGLEWLGMIWGGGSSDYNSALKSRLSISKDNSKSQVFLKMNSLQTDDTAMYYCARNGYFYAMDYWGQGTSVTVSS VL: QIVLTQSPAIMSASLGERVTMTCTASSSVSSSFLHWYQQKPGSSPQLWIYSTSNLASGVPARFSGSGSGTSYSLTISSMEAEDAATYYCHQYHHSPYIYTFGGGTKLEIK | 0.757 and 0.784 and 0.699 | 0.894 and 0.926 and 0.825
6 | KB001 parental mouse Fab FASEBA variant VH F101S (Fab, V domains shown) VH: EVQLKQSGPGLVAPSQSLSITCTVSGFSLSIYSVHWVRQPPGKGLEWLGMIWGGGSSDYNSALKSRLSISKDNSKSQVFLKMNSLQTDDTAMYYCARNGNSYAMDYWGQGTSVTVSS VL: QIVLTQSPAIMSASLGERVTMTCTASSSVSSSFLHWYQQKPGSSPQLWIYSTSNLASGVPARFSGSGSGTSYSLTISSMEAEDAATYYCHQYHHSPYIYTFGGGTKLEIK | 0.678 and 0.725 | 0.8 and 0.856
7 | KB001 parental mouse Fab FASEBA variant VH F101W (Fab, V domains shown) VH: EVQLKQSGPGLVAPSQSLSITCTVSGFSLSIYSVHWVRQPPGKGLEWLGMIWGGGSSDYNSALKSRLSISKDNSKSQVFLKMNSLQTDDTAMYYCARNGNWYAMDYWGQGTSVTVSS VL: QIVLTQSPAIMSASLGERVTMTCTASSSVSSSFLHWYQQKPGSSPQLWIYSTSNLASGVPARFSGSGSGTSYSLTISSMEAEDAATYYCHQYHHSPYIYTFGGGTKLEIK | 0.825 and 0.828 and 0.802 | 0.974 and 0.978 and 0.947
8 | KB001 parental mouse Fab FASEBA variant VH F101M (Fab, V domains shown) VH: EVQLKQSGPGLVAPSQSLSITCTVSGFSLSIYSVHWVRQPPGKGLEWLGMIWGGGSSDYNSALKSRLSISKDNSKSQVFLKMNSLQTDDTAMYYCARNGNMYAMDYWGQGTSVTVSS VL: QIVLTQSPAIMSASLGERVTMTCTASSSVSSSFLHWYQQKPGSSPQLWIYSTSNLASGVPARFSGSGSGTSYSLTISSMEAEDAATYYCHQYHHSPYIYTFGGGTKLEIK | 0.755 | 0.891
9 | KB001 parental mouse Fab FASEBA variant VH F101L (Fab, V domains shown) VH: EVQLKQSGPGLVAPSQSLSITCTVSGFSLSIYSVHWVRQPPGKGLEWLGMIWGGGSSDYNSALKSRLSISKDNSKSQVFLKMNSLQTDDTAMYYCARNGNLYAMDYWGQGTSVTVSS VL: QIVLTQSPAIMSASLGERVTMTCTASSSVSSSFLHWYQQKPGSSPQLWIYSTSNLASGVPARFSGSGSGTSYSLTISSMEAEDAATYYCHQYHHSPYIYTFGGGTKLEIK | 0.681 | 0.804
10 | KB001 parental mouse Fab FASEBA variant VH A103G (Fab, V domains shown) VH: EVQLKQSGPGLVAPSQSLSITCTVSGFSLSIYSVHWVRQPPGKGLEWLGMIWGGGSSDYNSALKSRLSISKDNSKSQVFLKMNSLQTDDTAMYYCARNGNFYGMDYWGQGTSVTVSS VL: QIVLTQSPAIMSASLGERVTMTCTASSSVSSSFLHWYQQKPGSSPQLWIYSTSNLASGVPARFSGSGSGTSYSLTISSMEAEDAATYYCHQYHHSPYIYTFGGGTKLEIK | 0.815 and 0.804 and 0.755 | 0.945 and 0.933 and 0.876
11 | KB001 parental mouse Fab FASEBA variant VH A103V (Fab, V domains shown) VH: EVQLKQSGPGLVAPSQSLSITCTVSGFSLSIYSVHWVRQPPGKGLEWLGMIWGGGSSDYNSALKSRLSISKDNSKSQVFLKMNSLQTDDTAMYYCARNGNFYVMDYWGQGTSVTVSS VL: QIVLTQSPAIMSASLGERVTMTCTASSSVSSSFLHWYQQKPGSSPQLWIYSTSNLASGVPARFSGSGSGTSYSLTISSMEAEDAATYYCHQYHHSPYIYTFGGGTKLEIK | 0.849 and 0.807 | 0.985 and 0.936
12 | KB001 parental mouse Fab FASEBA variant VH A103L (Fab, V domains shown) VH: EVQLKQSGPGLVAPSQSLSITCTVSGFSLSIYSVHWVRQPPGKGLEWLGMIWGGGSSDYNSALKSRLSISKDNSKSQVFLKMNSLQTDDTAMYYCARNGNFYLMDYWGQGTSVTVSS VL: QIVLTQSPAIMSASLGERVTMTCTASSSVSSSFLHWYQQKPGSSPQLWIYSTSNLASGVPARFSGSGSGTSYSLTISSMEAEDAATYYCHQYHHSPYIYTFGGGTKLEIK | 0.783 | 0.908
13 | KB001 parental mouse Fab FASEBA variant VH A103M (Fab, V domains shown) VH: EVQLKQSGPGLVAPSQSLSITCTVSGFSLSIYSVHWVRQPPGKGLEWLGMIWGGGSSDYNSALKSRLSISKDNSKSQVFLKMNSLQTDDTAMYYCARNGNFYMMDYWGQGTSVTVSS VL: QIVLTQSPAIMSASLGERVTMTCTASSSVSSSFLHWYQQKPGSSPQLWIYSTSNLASGVPARFSGSGSGTSYSLTISSMEAEDAATYYCHQYHHSPYIYTFGGGTKLEIK | 0.811 | 0.941
14 | KB001 parental mouse Fab FASEBA variant VH A103K (Fab, V domains shown) VH: EVQLKQSGPGLVAPSQSLSITCTVSGFSLSIYSVHWVRQPPGKGLEWLGMIWGGGSSDYNSALKSRLSISKDNSKSQVFLKMNSLQTDDTAMYYCARNGNFYKMDYWGQGTSVTVSS VL: QIVLTQSPAIMSASLGERVTMTCTASSSVSSSFLHWYQQKPGSSPQLWIYSTSNLASGVPARFSGSGSGTSYSLTISSMEAEDAATYYCHQYHHSPYIYTFGGGTKLEIK | 0.723 | 0.839
15 | KB001 parental mouse Fab FASEBA variant VH A103I (Fab, V domains shown) VH: EVQLKQSGPGLVAPSQSLSITCTVSGFSLSIYSVHWVRQPPGKGLEWLGMIWGGGSSDYNSALKSRLSISKDNSKSQVFLKMNSLQTDDTAMYYCARNGNFYIMDYWGQGTSVTVSS VL: QIVLTQSPAIMSASLGERVTMTCTASSSVSSSFLHWYQQKPGSSPQLWIYSTSNLASGVPARFSGSGSGTSYSLTISSMEAEDAATYYCHQYHHSPYIYTFGGGTKLEIK | 0.695 and 0.693 | 0.806 and 0.804
16 | KB001 parental mouse Fab FASEBA variant VH A103C (Fab, V domains shown) VH: EVQLKQSGPGLVAPSQSLSITCTVSGFSLSIYSVHWVRQPPGKGLEWLGMIWGGGSSDYNSALKSRLSISKDNSKSQVFLKMNSLQTDDTAMYYCARNGNFYCMDYWGQGTSVTVSS VL: QIVLTQSPAIMSASLGERVTMTCTASSSVSSSFLHWYQQKPGSSPQLWIYSTSNLASGVPARFSGSGSGTSYSLTISSMEAEDAATYYCHQYHHSPYIYTFGGGTKLEIK | 0.77 | 0.893
17 | KB001 parental mouse Fab FASEBA variant VH M104L (Fab, V domains shown) VH: EVQLKQSGPGLVAPSQSLSITCTVSGFSLSIYSVHWVRQPPGKGLEWLGMIWGGGSSDYNSALKSRLSISKDNSKSQVFLKMNSLQTDDTAMYYCARNGNFYALDYWGQGTSVTVSS VL: QIVLTQSPAIMSASLGERVTMTCTASSSVSSSFLHWYQQKPGSSPQLWIYSTSNLASGVPARFSGSGSGTSYSLTISSMEAEDAATYYCHQYHHSPYIYTFGGGTKLEIK | 0.786 | 0.904
18 | KB001 parental mouse Fab FASEBA variant VH Y106Q (Fab, V domains shown) VH: EVQLKQSGPGLVAPSQSLSITCTVSGFSLSIYSVHWVRQPPGKGLEWLGMIWGGGSSDYNSALKSRLSISKDNSKSQVFLKMNSLQTDDTAMYYCARNGNFYAMDQWGQGTSVTVSS VL: QIVLTQSPAIMSASLGERVTMTCTASSSVSSSFLHWYQQKPGSSPQLWIYSTSNLASGVPARFSGSGSGTSYSLTISSMEAEDAATYYCHQYHHSPYIYTFGGGTKLEIK | 0.768 | 0.999
19 | KB001 parental mouse Fab FASEBA variant VH Y106I (Fab, V domains shown) VH: EVQLKQSGPGLVAPSQSLSITCTVSGFSLSIYSVHWVRQPPGKGLEWLGMIWGGGSSDYNSALKSRLSISKDNSKSQVFLKMNSLQTDDTAMYYCARNGNFYAMDIWGQGTSVTVSS VL: QIVLTQSPAIMSASLGERVTMTCTASSSVSSSFLHWYQQKPGSSPQLWIYSTSNLASGVPARFSGSGSGTSYSLTISSMEAEDAATYYCHQYHHSPYIYTFGGGTKLEIK | 0.73 and 0.728 and 0.764 | 0.949 and 0.947 and 0.993
20 | KB001 parental mouse Fab FASEBA variant VH Y106H (Fab, V domains shown) VH: EVQLKQSGPGLVAPSQSLSITCTVSGFSLSIYSVHWVRQPPGKGLEWLGMIWGGGSSDYNSALKSRLSISKDNSKSQVFLKMNSLQTDDTAMYYCARNGNFYAMDHWGQGTSVTVSS VL: QIVLTQSPAIMSASLGERVTMTCTASSSVSSSFLHWYQQKPGSSPQLWIYSTSNLASGVPARFSGSGSGTSYSLTISSMEAEDAATYYCHQYHHSPYIYTFGGGTKLEIK | 0.722 | 0.939
